Key:
[1] = Evaluation of adsorptivity to culture plate (OPA fluorescence); assay type: physicochemical; details: FIG. 1; for adsorptivity to a plate: 0 to 200 pmol/cm^2, 37° C. 2 hours, washed with PBS twice
Procedure: Each polypeptide obtained by the above-described method was diluted with a predetermined buffer so as to be added to wells at a predetermined final concentration of from 0 to 200 pmol/cm^2, and the resultant was aliquoted in 64 μL to a 96-well plate made of polystyrene and treated with plasma (Tissue Culture-Treated, Falcon). Each polypeptide was adsorbed to the plate by incubation at 37° C. for 2 hours, and was thereafter washed with PBS twice, to obtain a surface coated with each of the polypeptides of from RCP-1 to RCP-16.
To surfaces coated with RCP-1, and from RCP-11 to RCP-16 among the polypeptide-coated surfaces obtained as described above, 64 μL of each of boric acid buffer and 1 N NaOH was applied, and incubated at 80° C. and a humidity of 100% for 24 hours. After air-cooling, 75 μL of boric acid buffer was added to each well, and 50 μL of reaction liquid in which an OPA (o-phthalaldehyde: Wako Pure Chemical Industries, Ltd.)/methanol solution (160 mg/ml) and an NAC (N-acetyl-L-cysteine: Wako Pure Chemical industries, Ltd.)/boric acid buffer solution (2 mg/ml) were mixed at 1:100 (mass ratio) was further added. After incubation at 40° C. for 30 minutes, the fluorescence intensity thereof was measured (excitation of 355 nm/fluorescence of 486 nm) using an ENVISION MULTI-LABEL COUNTER (PerkinElmer Inc.). A calibration curve was separately made from each polypeptide solution, to calculate an amount of adsorption. In FIG. 1, a black rhombus, a black tetragon, a black triangle, a black circle, a white rhombus, a white tetragon, and a white triangle represent RCP-1, RCP-11, RCP-12, RCP-13, RCP-14, RCP-15, and RCP-16, respectively.

human iPS cells [2] = assay: Cell Adhesiveness Evaluation 2 (synthetic peptide inhibition of cell adhesion to natural vitronectin); assay type: cell-based; details: 100 μM synthetic peptide
Procedure: Polypeptides listed in Table 7 were synthesized by Emoc solid phase synthesis. A surface to which natural vitronectin was adsorbed at a concentration of 130 pmol/m^2, and thereafter, a cell suspension to which 100 μM of the above-described synthetic peptide was added was seeded at a rate of 30,000 cells/well. The number of adherent cells after 24 h post seeding was calculated by the same technique as in <Cell Adhesiveness Evaluation 1>.

human iPS cells [3] = assay: Proliferation Evaluation of iPS cells on polypeptide-coated plate; assay type: cell-based; details: for The Number (%) of Cells after 3 Days: 5000 cells/well
Procedure: The iPS cells collected in the same manner as in <Cell Adhesiveness Evaluation 1>described above were seeded on a 96-well plate, to which RCP-1, RCP-11, and the natural human vitronectin were adsorbed, at a rate of 250 cells/well, and were cultured in a 5% CO2 incubator at 37° C. for 8 days. The number of adherent cells after each lapse of time was measured by the same method as in <Cell Adhesiveness Evaluation 1> described above, to obtain proliferation curves, The proliferation curves were indicated in FIG. 2. In FIG. 2, a black rhombus represents an example in which RCP-1 was used, while a black tetragon represents an example in which RCP-11 was used.
Similarly, each of samples from […] was prepared so as to have an addition concentration listed in Table 8 with each of from RCP-1 to RCP-10, and RCP-17, and Human Recombinant Laminin-511 as a reference, was seeded on a 96-well plate, to which each polypeptide was adsorbed, at a rate of 5000 cells/well in the same manner as in<Cell Adhesiveness Evaluation 1> described above, and was cultured in a CO2 incubator at 37° C. for 3 days. The number of cells after the 3 days was measured by the same method as in <Cell Adhesiveness Evaluation 1> described above.

[4] = Presence or absence of aggregation after dialysis; assay type: physicochemical; details: after stepwise dialysis removing urea
Procedure: For from RCP-1 to RCP-10, and RCP-17, each polypeptide solution after the purification was dialyzed using a SLIDE-A-LIZER (3.5K MWCO). A dialysis external liquid was based on a dialysis buffer (PBS, 1.5 M NaCl, 0.5 M L-arginine, 1 mM EDTA, pH 7.4), and urea was removed by stepwise dialysis. The concentration of an end dialysis product was calculated at an absorbance of 280 nm using a NANODROP (Thremo Fisher Scientific Inc.).
In addition, the presence or absence of aggregation was evaluated by G, A, and B below.
G: Formation of an aggregate is not observed.
A: Formation of particles having a particle diameter of around 100 nm is observed.
B: Formation of visible aggregation with a particle diameter of 1 mm or more is observed.

human iPS cells [5] = assay: Cell Adhesiveness Evaluation 3 (RCP-1 addition amount series); assay type: cell-based; details: adding not less than 125 pmol/cm^2
Procedure: Cell adhesiveness was evaluated in the same manner as in <Cell Adhesiveness Evaluation 1> except that RCP-1 was adjusted with PBS to have a concentration of from 125 pmol/cm^2 to 1000 pmol/cm^2 to be used. In Table 9, cell adhesion rates were relative values in a case in which a cell adhesion rate to a cultivation container to which natural vitronectin was adsorbed at a concentration of 130 pmol/cm^2 was regarded as 100. n=3.

human iPS cells [6] = assay: Evaluation of Maintenance of Undifferentiation (colony form, NANOG staining); assay type: cell-based
Procedure: iPS cells collected in the same manner as in <Cell Adhesiveness Evaluation 1> described above were suspended in TESR2. Induced pluripotent stem cells (iPS cells) were seeded on a 6-well plate (Tissue Culture-Treated, Falcon) to which each of the sample 1, the sample 2, the sample 5, the sample 6, and the sample 7 used in <Cell Adhesiveness Evaluation 1> described above was adsorbed in the same manner as in <Cell Adhesiveness Evaluation 1>, and were cultured in a CO2 incubator at 37° C. The culture medium was replaced by a fresh culture medium every day except the next day after the seeding. Subculture was performed by the same method as mentioned above every six days.
The cells were cultured under these conditions for 1 month, thereafter immobilized with 4% paraformaldehyde, and made to have membrane permeability enhanced with 1% Triton-X/PBS. Blocking treatment was performed with an Image IT Signal Enhancer (Invitrogen), followed by adding an anti-human NANOG antibody (AF1997, R&D Systems, Inc), ALEXA FLUOR 555-CONJUGATE rabbit anti-goat IgG antibody (Invitrogen), and DAPI (Dojindo Laboratories), by performing labeling, and by photographing the cells with a fluorescence microscope.
In each of FIG. 3 and FIG. 4, “A”, “B”, “C” “D”, and “E” show iPS cells cultured on RCP-1, iPS cells cultured on RCP-11, iPS cells cultured on the natural human vitronectin, iPS cells cultured on rinaminin-5, and iPS cells cultured on rLaminin-511, respectively. Scale bar: 100 μm. In FIG. 3, overall colony images are shown in the left column, while magnified images are shown in the right column; and in FIG. 4, DAPI-stained images are shown in the left column while anti-NANOG antibody-stained images are shown in the right column. Scale bars in FIGS. 3 and 4: 200 μm.

RCP-14: comparative recombinant polypeptide, GPLG + human vitronectin positions 1-55 (GPLGDQESCKGRCTEGFNVDKKCQCDELCSYYQSCCTDYTAECKPQVTRGDVFTMPEDE; Synthetic Peptide RCP-14) [reference compound]
adsorption amount relative to that of the polypeptide containing SEQ ID NO:2 [1]: ¼
adsorptivity to a plate [1]: inadequate as an adsorbent to a culture plate

TAECKPQVTRGDVFTMPEDE [Peptide-6]
inhibition of cell adhesion to natural vitronectin (in words) (human iPS cells [2]): significantly inhibited

TAECKPQVTRGEVGTMPEDE (TAECKPQVTRGEVFTMPEDE) [Peptide-8]
inhibition of cell adhesion to natural vitronectin (in words) (human iPS cells [2]): adhesion inhibition did not occur

B1: RCP-9: recombinant polypeptide, Met + human vitronectin positions 1-55, 269-373, 374-389, C274S (protein)
chain: MDQESCKGRCTEGFNVDKKCQCDELCSYYQSCCTDYTAECKPQVTRGDVFTMPEDESQEESEGSSLSAVFEHFAMMQRDSWEDIFELLFWGRTSAGTRQPQFISRDWHGVPGQVDAAMAGRIYISGMAPRPSLAKKQRFRHRNRKGYRSQRGHSRGRNQNSRRPSRATWLSLFSSE
modifications: Synthetic Peptide RCP-9
notes: recombinant polypeptide, Met + human vitronectin positions 1-55, 269-373, 374-389, C274S
The Number (%) of Cells after 3 Days (human iPS cells [3]; addition amount 20 μg/cm^2): 105.8%
Aggregation [4]: B (Formation of visible aggregation with a particle diameter of 1 mm or more is observed.)

B2: RCP-13: comparative recombinant polypeptide, GPLG + human vitronectin positions 1-55, 56-129 (protein)
chain: GPLGDQESCKGRCTEGFNVDKKCQCDELCSYYQSCCTDYTAECKPQVTRGDVFTMPEDEYTVYDDGEEKNNATVHEQVGGPSLTSDLQAQSKGNPEQTPVLKPEEEAPAPEVGASKPEGIDSRPETLHPGRPQP
modifications: Synthetic Peptide RCP-13
adsorption amount relative to that of the polypeptide containing SEQ ID NO:2 [1]: ¼
adsorptivity to a plate [1]: inadequate as an adsorbent to a culture plate

B3: RCP-16: comparative recombinant polypeptide, GPLG + human vitronectin positions 269-459 (protein)
chain: GPLGPSQEECEGSSLSAVFEHFAMMQRDSWEDIFELLFWGRTSAGTRQPQFISRDWHGVPGQVDAAMAGRIYISGMAPRPSLAKKQRFRHRNRKGYRSQRGHSRGRNQNSRRPSRATWLSLFSSEESNLGANNYDDYRMDWLVPATCEPIQSVFFFSGDKYYRVNLRTRRVDTVDPPYPRSIAQYWLGCPAPGHL
modifications: Synthetic Peptide RCP-16
adsorptivity to a plate [1]: favorable adsorptivity to a plate, equivalent to that of RCP-11

B4: RCP-10: recombinant polypeptide, Met + human vitronectin positions 1-55, 269-373, 374-399, C274S (protein)
chain: MDQESCKGRCTEGFNVDKKCQCDELCSYYQSCCTDYTAECKPQVTRGDVFTMPEDESQEESEGSSLSAVFEHFAMMQRDSWEDIFELLFWGRTSAGTRQPQFISRDWHGVPGQVDAAMAGRIYISGMAPRPSLAKKQRFRHRNRKGYRSQRGHSRGRNQNSRRPSRATWLSLFSSEESNLGANNYD
modifications: Synthetic Peptide RCP-10
notes: recombinant polypeptide, Met + human vitronectin positions 1-55, 269-373, 374-399, C274S
The Number (%) of Cells after 3 Days (human iPS cells [3]; addition amount 20 μg/cm^2): 101.9%
Aggregation [4]: B (Formation of visible aggregation with a particle diameter of 1 mm or more is observed.)

B5: RCP-1: recombinant polypeptide, Met + human vitronectin (SEQ ID NO:3) positions 1-55, 269-459 (protein)
chain: MDQESCKGRCTEGFNVDKKCQCDELCSYYQSCCTDYTAECKPQVTRGDVFTMPEDEPSQEECEGSSLSAVFEHFAMMQRDSWEDIFELLFWGRTSAGTRQPQFISRDWHGVPGQVDAAMAGRIYISGMAPRPSLAKKQRFRHRNRKGYRSQRGHSRGRNQNSRRPSRATWLSLFSSEESNLGANNYDDYRMDWLVPATCEPIQSVFFFSGDKYYRVNLRTRRVDTVDPPYPRSIAQYWLGCPAPGHL
modifications: Synthetic Peptide RCP-1
adhesiveness of iPS cells (in words) (human iPS cells [5]): cell adhesion rate equivalent to that of natural vitronectin
adsorptivity to a plate [1]: favorable adsorptivity to a plate, equivalent to that of RCP-11
form of iPS cell colonies (human iPS cells [6]; FIG. 3, TESR2, subculture every six days): homogeneous colony and a form characteristic for undifferentiated cells having a high nucleus occupying rate
NANOG expression (immunostaining) (human iPS cells [6]; FIG. 4, cultured for 1 month): strongly expressed NANOG in an overall colony
maintenance of undifferentiated state (human iPS cells [6]; cultured for 1 month): undifferentiated state was favorably maintained
cell proliferation property (in words) (human iPS cells [3]; FIG. 2 and Table 8): higher cell proliferation property than that of RCP-11
The Number (%) of Cells after 3 Days (human iPS cells [3]; addition amount 80 μg/cm^2): 100.0%

B6: RCP-15: comparative recombinant polypeptide, GPLG + human vitronectin positions 56-459 (protein)
chain: GPLGYTVYDDGEEKNNATVHEQVGGPSLTSDLQAQSKGNPEQTPVLKPEEEAPAPEVGASKPEGIDSRPETLHPGRPQPPAEEELCSGKPFDAFTDLKNGSLFAFRGQYCYELDEKAVRPGYPKLIRDVWGIEGPIDAAFTRINCQGKTYLFKGSQYWRFEDGVLDPDYPRNISDGFDGIPDNVDAALALPAHSYSGRERVYFFKGKQYWEYQFQHQPSQEECEGSSLSAVFEHFAMMQRDSWEDIFELLFWGRTSAGTRQPQFISRDWHGVPGQVDAAMAGRIYISGMAPRPSLAKKQRFRHRNRKGYRSQRGHSRGRNQNSRRPSRATWLSLFSSEESNLGANNYDDYRMDWLVPATCEPIQSVFFFSGDKYYRVNLRTRRVDTVDPPYPRSIAQYWLGCPAPGHL
modifications: Synthetic Peptide RCP-15
adsorptivity to a plate [1]: favorable adsorptivity to a plate, equivalent to that of RCP-11
